Test results: the supplement of paper PMC12042874
± gives the uncertainty stated by the source.

Assay: amyloid nucleation score (Sup35N fusion, yeast selection) (log enrichment); library NNK1; higher = more nucleation; inactive = no reads after selection
Outline: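 Growth for 7 days at 30°C on medium lacking adenine and uracil followed a 24-hour induction with 100 μM copper sulfate of psi-negative yeast expressing peptides of 20 random codons fused to Sup35N. Input and output plasmid inserts were sequenced with Illumina, and sequences with under 100 input reads were excluded. Nucleation score is the DiMSum log enrichment of output over input reads, centred on the mode score of non-aggregating sequences.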

Substance	amyloid nucleation score
NFYMGETDGACLCASMRDPQ	2.62 ± 0.14
NGCQSIMR	0.165 ± 0.62
NGFRTSTSCVILLPFCKGQK	-0.129 ± 0.57
NGGAPSGNSGFKYSCKGWFV	-0.452 ± 0.52
NGKWYLLVRGFLAWNKQRCP	-1.03 ± 2.7
NGLQMDCWPLCWRGGGARNC	0.582 ± 0.38
NGRIQKLASNTCGLWEDLDT	0.501 ± 0.54
NGYFGAEDFLIVWIALRKKW	0.5 ± 0.9
NHFLYLFVRYYTRLAEHVYA	-0.08 ± 0.56
NHLRGKCTWGRYCWSVVIRF	0.362 ± 0.83
NHMSGIDKGIMRLGEWLGEW	-1 ± 0.83
NHTGYTWMNVR	-0.099 ± 0.26
NHVSHWMLSSGKASRYHTRR	0.142 ± 0.66
NIGMVRFFLGAN	-0.71 ± 0.61
NIITIETGGRKVGTFMMYSI	inactive
NILFCWMGTMYPLLLSAYGR	-0.793 ± 0.48
NILVAIL	-1.45 ± 1.4
NIPQLVVFKWMLSTC	-0.047 ± 1.1
NIQSDRVHIFNELVRFSRWK	0.829 ± 0.97
NISVHDNNLFHVWNLMVDSG	5.83 ± 0.061
NIYNVRLIVSH	-0.018 ± 0.54
NKAFGMIV	-0.103 ± 0.79
NKGKIESMCSSAH	4.7 ± 0.099
NKLEYPHNNACATCC	1.09 ± 0.84
NKNTS	-0.45 ± 0.54

Substance	amyloid nucleation score
NKQEQHFF	0.052 ± 0.4
NKSVFVLFVWINSENNVYCE	0.443 ± 0.62
NLACGFKSWDFKRMRD	0.685 ± 0.51
NLEAIRQMQEKIMRRTWLLY	3.03 ± 0.13
NLEHKCVFVLHMKTLIISQP	0.664 ± 1.2
NLERKEVLSREGCICANFTR	-0.345 ± 0.45
NLFLIDMNVWRLVVGGRQDW	4.63 ± 0.073
NLFNYLSFD	-0.675 ± 0.49
NLGIWPLYPYFFWLGQIWGD	0.022 ± 0.77
NLGTSYAWHDNGLFCIHCVS	1.34 ± 0.84
NLICNLVDNQFPVWQLLRIW	2.3 ± 0.17
NLKIQCSS	0.004 ± 0.39
NLLGDSLWEPLNLVDGSTLW	0.235 ± 0.3
NLMNWRLYDLTGLAAWDQYS	-0.841 ± 0.98
NLRFRRYTLVSGMQGNKIWH	-0.234 ± 0.48
NLSCAE	-0.288 ± 0.71
NLTCSLMVCRWFPIPVL	0.171 ± 0.38
NLVALNLSNTFPDDV	0.04 ± 0.82
NLVFW	0.562 ± 0.69
NLVVTTWARDIADYISAS	-0.01 ± 0.4
NLVYTAIAPPFASFRK	0.005 ± 0.65
NLWSGFLRFKFSCGRIDGIL	-0.622 ± 0.41
NMDGSVSCVCNILSFDYGGS	8.289 ± 0.077
NMDSNAIGGGGNGGVRLQSR	-0.76 ± 0.55
NMGSFELWYYGLKASVGFAN	0.513 ± 0.4

Substance	amyloid nucleation score
NMKRQRAHPMFS	-0.707 ± 0.45
NMNNGDMSSVVVVIRVFCLI	5.38 ± 0.093
NMRTNQDKSCGCCQLPVQAG	-0.119 ± 1.2
NMTAYSRCSSRTWYTVVFSG	1.71 ± 0.15
NMVLRPHVMYAWNEPELGNC	-0.22 ± 0.39
NNANCMCSNTCHVFWANHAR	6.193 ± 0.061
NNCLWLLGPRFPCVIMLVPA	2.18 ± 0.14
NNEPGLGEK	-0.598 ± 0.92
NNFFITVHSLLIRSSTHMR	0.015 ± 0.37
NNGRLYVTIRLMDINLVVHT	0.616 ± 0.43
NNKCWNIVRLVHRSLTLTRH	inactive
NNLLLSYSSFYMLMFQ	3.42 ± 0.076
NNLRLKGKKRSYRCSVIDLT	-0.256 ± 0.39
NNMLAWWVSLTSSQT	0.512 ± 0.39
NNNAMQVDVILMRFWVKVAV	0.492 ± 0.89
NNPLLIPAYPTRNQKVKLIK	0.108 ± 0.39
NNTFVIVKFEAKDTFVEGVR	1.57 ± 0.3
NPGPYRARHSSDSWRGNYNE	-0.366 ± 0.58
NQILRLMCWTFYFRESSKSY	inactive
NQRYHYLAAQWVDSWLVGCS	-0.256 ± 0.6
NQYLPS	-0.126 ± 1.2
NQYMIQGKVSRSNIMCLGMR	-0.067 ± 0.21
NRANSVVGQACRKSVIRNRF	-0.144 ± 0.32
NRISALWSTMLWFAY	-0.008 ± 0.27
NRIVADSESYCTSCLAVCAH	0.177 ± 0.3

Substance	amyloid nucleation score
NRLNGNLPLNHR	0.014 ± 0.51
NRLWSIRK	-0.425 ± 0.34
NRMLSSKQAPSQNFQ	0.814 ± 0.46
NRPHFKGNQCPQDIS	-0.217 ± 0.22
NRRLIIVNFVQSKDTCEWRG	2.77 ± 0.21
NRVSFYATTNFSISRFGSWG	inactive
NRYFRMCFRLWFDPTWSVRA	0.681 ± 0.85
NRYSYYFLLI	3.16 ± 0.1
NSAILITNIECLYNIITLFT	6.389 ± 0.048
NSAKLIARLWMMWDLATSDW	-0.89 ± 0.46
NSCICLTRD	-1.27 ± 1.7
NSDSIGIRVFDV	0.242 ± 0.99
NSILFNGTQLD	-0.976 ± 0.35
NSLCRLSGCCGVLRDLPLVM	-0.232 ± 0.33
NSPRPSLLCCPCGKAYLHFR	-0.282 ± 1.2
NSREYDRATGNGGTEGKSVT	-0.45 ± 1.1
NSSTVDFSYTNYVRVLLLIA	-0.745 ± 0.8
NSVIFELISSCVNDSNVAGD	1.45 ± 0.63
NSVYGTIDYGPHCFVNEGNF	inactive
NSYQSSFSEFAASICFDTAE	-2.5 ± 2.4
NTADTFMNLAILSC	0.148 ± 0.35
NTALMWVMMIVIWSVVSFTS	-0.8 ± 1.4
NTANIIDTGGDSTPLISRSC	-0.958 ± 0.96
NTHKLSGLI	0.149 ± 0.41
NTNLVWR	0.267 ± 0.36

Substance	amyloid nucleation score
NTQFHCDDFQLVHDIQ	0.214 ± 0.38
NTSEIPCCVIQEWFYCTFYL	7.503 ± 0.044
NTSSLVMVSCDTPRYTNTEV	-1.04 ± 0.72
NTSWGYFR	-0.426 ± 0.52
NTVQNSMG	inactive
NVAGMSPQSWVVDTSSR	1.34 ± 0.4
NVDRSCWRRECPDCWVMLNM	0.664 ± 0.49
NVFILMCITKRFCNWLNISS	-0.773 ± 1.5
NVGLGRWSFCGSMSVK	-0.688 ± 0.58
NVGQPRNVVDSIQ	0.67 ± 0.23
NVKLFFNIFVGKSKIHTTPW	6.308 ± 0.058
NVMNVIGGENWVSGFDCMGR	inactive
NVRLHVVYVSPSYACFIWSW	0.343 ± 1.4
NVSEVCKYYPLFRSD	-0.007 ± 0.23
NVSGNEMISGAFGIDEIDGS	0.189 ± 0.9
NVTSAR	0.185 ± 1.1
NVYLMKLDWTIKMWWA	0.638 ± 0.69
NWGENWRLGMSSIREESGAE	-0.735 ± 2.1
NWICKRVIYEYFSTQIYSSG	-0.133 ± 0.55
NWINNRG	1.03 ± 0.32
NWLNWLTHLFS	0.407 ± 0.49
NWLTTQNI	-0.371 ± 0.42
NWMTLRWVLGGLSNGFDGSH	4.41 ± 0.073
NWSRPSSNLGGGPSSAVREG	0.764 ± 0.52
NYAYCSLVVEDSVK	8.284 ± 0.063

Substance	amyloid nucleation score
NYGFAIPFA	0.323 ± 0.31
NYIEPQG	0.296 ± 0.97
NYLHFSRRLALWRC	inactive
NYSSINLWPCVMLNFRYL	inactive
NYSVFVTSI	0.365 ± 0.5
NYVYPRVLYSFQVLLYPSKD	0.704 ± 0.49
PAATNAWGWRVPDPGSMIPS	-0.3 ± 0.42
PALKYFEAVVH	inactive
PAMAWSSSMSFRGTILLDFA	-1.44 ± 2.7
PAQEA	0.126 ± 0.45
PARSWNLLLSSYYAVFGCFY	-0.327 ± 0.74
PCRGL	-0.628 ± 2.1
PCSSFVNCKIMFLTLMDVVW	7.739 ± 0.056
PDFNPMSVVNGCSGSRWLNA	-0.676 ± 0.75
PDIRYAFVNFDYLATIWVNG	-1.86 ± 1.7
PDLTSCDVIVIWGFGRG	-0.118 ± 1
PDRRQSN	inactive
PEARWWERMDKGCMKVFHFK	0.945 ± 0.44
PECTNDKVY	0.541 ± 0.52
PETFLPTSRVPEMGKLDTLS	0.456 ± 0.22
PFLFVEIYDNGGSW	1.36 ± 0.37
PFLNVEHFVMVDRFIVPDI	0.559 ± 0.79
PFNQLDFTVAYYLSCAH	-0.482 ± 0.63
PFRVLWTCITG	-0.229 ± 1.4
PFTHHHKCLVHRLLCRLQHE	0.616 ± 0.79

Substance	amyloid nucleation score
PGCESARRLKLRVSLKLRGK	-0.731 ± 1.1
PGGYM	0.597 ± 0.52
PGMKISSFCYTTMNHYNKSF	-0.375 ± 1.2
PGRSTHDIRSGPAEYTDSVC	0.487 ± 0.63
PGSVDCTVGD	-0.048 ± 0.65
PGVNKVHLYKESIIYLLAVS	inactive
PHRFVN	-0.188 ± 0.3
PIFMVSLST	-0.661 ± 0.66
PIFSYFALFLGLIKHCIMSQ	-0.238 ± 0.53
PILSNLHIPMCPENVNGRGS	0.939 ± 0.33
PINYVDRIRYVCMWCLFVAF	inactive
PISMKQVKREEMGFTPAVSS	-0.352 ± 0.95
PITFS	0.448 ± 0.68
PKLRKLVSFYVSYIPGGGYG	-0.106 ± 0.93
PLEKVFVGPSADASNEEHRL	-0.883 ± 1.1
PLFLQCLWKNSLDLGMKDLS	-0.327 ± 1.4
PLLLNEVKRL	0.614 ± 0.29
PLRNRNCVPYPHDCLSTSLI	-0.816 ± 1.3
PLRSRSGVSL	1.09 ± 0.62
PLRTLPEQRCW	-0.006 ± 0.29
PLTKVFV	0.167 ± 0.82
PLWAPNSSNFAINRNQWRFN	0.11 ± 0.57
PLYLW	inactive
PMLFGVGRSFE	-0.377 ± 0.27
